We go through 3 substances from paper PMC2233886.

The target in test [1] is eCFP-CNGB1 (UniProt Q28181). As to the kind of experiment: FRET or BRET. (In general: BRET reads energy transfer from a luciferase to a nearby fluorophore.)
Test [2] concerns the target heteromeric CNGA1/CNGB1 channels (UniProt Q00194). As to the kind of experiment: patch-clamp fluorometry.
The target in test [3] is CNGA1-eYFP (UniProt Q00194). As to the kind of experiment: FRET or BRET.
Sequence of CNGA1-eYFP (Q00194 whole entry K2E): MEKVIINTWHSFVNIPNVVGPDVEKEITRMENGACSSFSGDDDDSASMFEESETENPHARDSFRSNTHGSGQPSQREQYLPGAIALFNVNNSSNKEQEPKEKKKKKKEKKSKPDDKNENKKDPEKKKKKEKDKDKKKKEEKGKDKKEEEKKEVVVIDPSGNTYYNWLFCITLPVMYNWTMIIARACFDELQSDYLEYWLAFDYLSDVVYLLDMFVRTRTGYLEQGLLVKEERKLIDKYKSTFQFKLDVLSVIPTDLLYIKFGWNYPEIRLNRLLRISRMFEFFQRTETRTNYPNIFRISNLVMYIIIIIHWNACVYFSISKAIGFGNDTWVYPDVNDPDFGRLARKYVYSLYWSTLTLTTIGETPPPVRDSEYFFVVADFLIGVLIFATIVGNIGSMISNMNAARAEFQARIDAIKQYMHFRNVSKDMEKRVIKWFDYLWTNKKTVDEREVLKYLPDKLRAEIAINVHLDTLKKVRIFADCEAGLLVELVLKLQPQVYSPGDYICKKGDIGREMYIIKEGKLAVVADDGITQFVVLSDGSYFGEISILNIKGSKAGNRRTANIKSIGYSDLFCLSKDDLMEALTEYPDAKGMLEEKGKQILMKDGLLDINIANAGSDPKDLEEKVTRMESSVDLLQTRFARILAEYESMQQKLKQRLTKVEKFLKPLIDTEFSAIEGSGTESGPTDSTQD

Sequence of heteromeric CNGA1/CNGB1 channels (Q00194 whole entry K2E, chain 1 of 2): as the sequence (Q00194 whole entry K2E) above
Sequence of heteromeric CNGA1/CNGB1 channels (Q28181 whole entry, chain 2 of 2, further chain): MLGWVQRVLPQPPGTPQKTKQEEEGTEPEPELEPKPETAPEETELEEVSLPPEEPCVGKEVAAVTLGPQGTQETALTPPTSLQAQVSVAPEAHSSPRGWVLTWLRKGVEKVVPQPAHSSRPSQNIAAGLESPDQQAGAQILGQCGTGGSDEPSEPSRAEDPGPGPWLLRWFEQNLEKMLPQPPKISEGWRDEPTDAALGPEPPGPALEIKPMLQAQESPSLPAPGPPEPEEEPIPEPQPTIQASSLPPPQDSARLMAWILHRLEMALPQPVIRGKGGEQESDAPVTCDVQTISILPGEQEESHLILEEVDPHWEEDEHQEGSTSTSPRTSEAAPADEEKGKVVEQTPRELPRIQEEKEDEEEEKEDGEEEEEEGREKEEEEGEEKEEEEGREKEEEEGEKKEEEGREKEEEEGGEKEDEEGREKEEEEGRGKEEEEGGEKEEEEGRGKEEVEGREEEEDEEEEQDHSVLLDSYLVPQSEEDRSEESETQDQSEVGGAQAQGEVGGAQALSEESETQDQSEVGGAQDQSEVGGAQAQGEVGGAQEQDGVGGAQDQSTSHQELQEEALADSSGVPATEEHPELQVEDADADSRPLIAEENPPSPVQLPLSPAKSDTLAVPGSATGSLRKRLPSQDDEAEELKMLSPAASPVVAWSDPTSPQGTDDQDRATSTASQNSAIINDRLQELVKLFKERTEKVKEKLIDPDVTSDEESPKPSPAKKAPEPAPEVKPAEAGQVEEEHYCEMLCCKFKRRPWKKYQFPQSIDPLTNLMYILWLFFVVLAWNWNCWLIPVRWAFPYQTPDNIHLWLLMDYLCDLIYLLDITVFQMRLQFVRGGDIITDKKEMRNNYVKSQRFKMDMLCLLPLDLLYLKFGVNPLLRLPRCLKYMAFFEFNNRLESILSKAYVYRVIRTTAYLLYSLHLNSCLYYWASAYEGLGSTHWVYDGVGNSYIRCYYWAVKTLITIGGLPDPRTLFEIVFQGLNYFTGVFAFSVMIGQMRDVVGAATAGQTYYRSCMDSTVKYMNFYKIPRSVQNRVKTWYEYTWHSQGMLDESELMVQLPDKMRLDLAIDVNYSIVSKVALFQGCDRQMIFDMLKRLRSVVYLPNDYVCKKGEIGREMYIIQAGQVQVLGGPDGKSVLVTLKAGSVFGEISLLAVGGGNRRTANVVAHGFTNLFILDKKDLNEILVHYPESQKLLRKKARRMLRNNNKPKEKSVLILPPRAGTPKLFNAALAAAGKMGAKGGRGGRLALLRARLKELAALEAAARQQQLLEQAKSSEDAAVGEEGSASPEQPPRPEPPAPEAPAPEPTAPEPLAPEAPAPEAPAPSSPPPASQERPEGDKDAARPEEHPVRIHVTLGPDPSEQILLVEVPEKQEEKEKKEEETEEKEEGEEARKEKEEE
Sequence of eCFP-CNGB1 (UniProt Q28181) (Q28181 whole entry): as the sequence (Q28181 whole entry, chain 2 of 2, further chain) above
Sequence of eCFP-CNGB1 (from UniProt Q28181 677-1394) (domain or fragment) (Q28181 whole entry, the tested form may be a part): as the sequence (Q28181 whole entry, chain 2 of 2, further chain) above
Sequence of eCFPΔCaM-CNGB1 (Q28181 whole entry, stated change not applied, the tested form may be a part): as the sequence (Q28181 whole entry, chain 2 of 2, further chain) above

The substance “CaM conjugated to the fluorescent dye Alexa-488 (from UniProt P62157 1-149) (natural protein)” returned a time constant of eCFP quenching (250 nM CaM-488) in test [1] of 24.6 s. In addition, in test [2], the time constant of fluorescence decrease (washout in Ca2+-free solution) amounted to 51 s and the time constant of fluorescence increase (250 nM CaM-488) came out at 18.5 s. Regarding “eCFP-CNGB1 (from UniProt Q28181 677-1394) (domain or fragment)”, the F530/F480 ratio (initial, before Ca2+/CaM) in test [3] worked out at 1.8. In test [3], “eCFPΔCaM-CNGB1 (from UniProt Q28181 702-1394) (domain or fragment)” registered a reduction in FRET against eCFP-CNGB1 of 29%.
